Experimental data reported in patent US20130224187A1 (Alexion, published 2013).

T1: human C5a (human, UniProt P01031 678-751)
T1 construct: also called hC5a; free human C5a
T1 sequence: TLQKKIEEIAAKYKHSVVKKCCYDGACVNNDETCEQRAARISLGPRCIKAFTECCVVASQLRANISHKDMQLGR

B1: 5an047 (antibody, V domains shown)
VH: EVQLQQSGPELVKPGASVRISCKASGYTFSDYYYMNWVKKSHGKSLEWIGYIFPKTGGTHYNQRFKGKATLTVDKSSSTAYMELRSLTSEDSAVYYCASGPFAYWGQGTLVTVSA
VL: EIVLTQSPAIMSASPGEKVTMTCRASSSVSSSYLHWYQQKSGASPKLWIYSTSNLASGVPARFSGSGSGTSYSLTISSVEAEDAATYYCQQYSGYPLTFGAGTKLELKR
notes: Murine
B2: 5an181 (antibody, V domains shown)
VH: EVQLQQSGPELVKPGASVKISCKASGYTFSDYYYMNWVKKSHGKSLEWIGYIFPKTGGTNYNQRFKGKATLTVDKSSSTAYMELRSLTSEDSAVYYCASGPFAYWGQGTLVTVSA
VL: EIVLTQSPAIMSASPGEKVTMTCRASSSVSSSYLHWYQQKSGASPKLWIYSTSNLASGVPARFSGSGSGTSYSLTISSVEAEDAATYYCQQYSGYPLTFGAGTKLELKR
notes: Murine
B3: 5anE11 (antibody, V domains shown)
VH: EVQLQQSGPELVKPGASVRISCKASGYTFSDYYYMNWVKKSHGKSLEWIGYIFPKTGGTHYNQRFKGKATLTVDKSSSTAYMELRSLTSEDSAVYYCASGPFAYWGQGTLVTVSA
VL: DIVMTQSQKFMSTSVGDRVSVTCKASQNVGTNVAWYQQKPGQSPKALIYSASYRYSGVPDRFTGSGSGTDFTLTISNVQSEDLAEYFCQQYNSYPWTFGGGTKLEIKR
notes: Murine
B4: 5an110ME (antibody, V domains shown)
VH: EVQLQQSGPELVKPGASVKISCKASGYTFSDYYYMNWVKKSHGKSLEWIGYIFPKTGGTNYSQRFKGKATLTVDKSSSTAYMELRSLTSEDSAVYYCASGPFAYWGQGTLVTVSA
VL: DIVMTQSQKFMSTSVGDRVSVTCKASQNVGTNVAWYQQKPGQSPKALIYSASYRYSGVPDRFTGSGSGTDFTLTISNVQSEDLAEYFCQQYNSYPFTFGSGTKLEIKR
notes: Murine
B5: 5an177ME (antibody, V domains shown)
VH: EVKLVESGGGLVKPGGSLKLSCAASGITFSSYYMAWVRQTPDKRLEWVATISSGGSYTYYPDNVKGRFTISRDNAKNTLYLQMSSLKSEDTAMYYCTRYYEDDAMDYWGQGTSVTVSS
VL: EIVLTQSPAIMSASPGEKVTMTCSASSSVSYMHWYQQKSGTSPKRWIYDTSKLASGVPARFSGSGSGTSYSLTISSMEAEDAATYYCQQWSSNPLTFGAGTKLELKR
notes: Murine
B6: 5an054ME (antibody, V domains shown)
VH: EVQLQQSGPELVKPGASVKISCKASGYTFTDYYYMNWVKQSHGKSLEWIGYIFPNTGGTTYNQRFKGKATLTVDKSSSTAYMELRSLTSEDSAVYYCASGPFAYWGQGTLVTVSA
VL: QIVLTQSPVIMSASPGEKVTMTCSASSSVSYMYWYQQKPGSSPRLLIYDTSNLASGVPVRFSGSGSGTSYSLTISRMEAEDAATYYCQQWSSYPPTFGAGTKLELKR
notes: Murine
B7: 5an109 (antibody, V domains shown)
VH: EVQLQQSGPELVKPGASVKISCKASGYTFSDYYYMNWVKKSHGKSLEWIGYIFPKTGGTNYNQRFKGKATLTVDKSSSTAYMELRSLTSEDSAVYYCASGPFAYWGQGTLVTVSA
VL: EIVLTQSPAIMSASPGEKVTMTCSASSSVSYMYWYQQKPGSSPRLLIYDTSNLASGVPVRFSGSGSGTSYSLTISRMEAEDAATYYCQQWSSYPPTFGGGTKLEIKR
notes: Murine
B8: 5an188ME (antibody, V domains shown)
VH: EVQLQQSGAELVKPGTSVKLSCKASGYTFTSYWMHWVKQRPGQGLEYIGEIHPSSGHTNYHEKFKSKATLTVDKSSSTAYMQLSSLTSEDSAVYYCARASLLRAYAMDYWGQGTSVTVSS
VL: DIVLTQSPASLAVSLGQRATISCRASESVDSYGNSFMHWYQQKPGQPPKLLIYLASNLESGVPARFSGSGSRTDFTLTIDPVEADDAATYYCQQNNEDPLTFGAGTKLELKR
notes: Murine
B9: 5an185ME (antibody, V domains shown)
VH: EVQPQQSGPELVKPGSSVKISCKASGYTFTDYSMDWVKQSHGKSLEWIGAIHLNTGYTNYNQKFKGKATLTVDKSSSTAYMELRSLTSEDSAVYYCARGFYDGYSPMDYWGQGTSVTVSS
VL: DIVLTQSPASLAVSLGQRATISCRASESVDSYGNSFMHWYQQKPGQPPKLLIYRASNLESGIPARFSGSGSRTDFTLTINPVEADDVATYYCQQSNEDPLTFGAGTKLELKR
notes: Murine
B10: 5anG12 (antibody, V domains shown)
VH: EVQLQQSGPELVKPGASVRISCKASGYTFNDYYYMNWVKQSHGKSLEWIGYIFPKTGGTHYNQRFKGKATLTVDKSSSTAYMELRSLTSEDSAVYYCASGPFAYWGQGTLVTVSA
VL: QIVLTQSPAIMSASPGEKVTMTCSASSSISYMHWYQQKPGTSPKRWIYDTSKLASGVPARFSGSGSGTSYSLTISSMEAEDAATYYCHQRSSYPWTFGGGTKLEIKR
notes: Murine
B11: 5an053 (antibody, V domains shown)
VH: EVQMQQSGPELVKPGASVKISCKASGYTFSDYYYMNWVKKSHGKSLEWIGYIFPKTGGTNYNQRFKGKATLTVDKSSSTAYMELRSLTSEDSAVYYCASGPFAYWGQGTLVTVSA
VL: EIVLTQSPVIMSASPGEKVTMICSASSSISYMHWYQQKPGTSPKRWIYDTSKLASGVPARFSGSGSGTSYSLTISIMEAEDAATYYCHQRSSYPWTFGGGTKLEIKR
notes: Murine
B12: 5anG10 (antibody, V domains shown)
VH: EVQLQQSGPELVKPGASVRISCKASGYTFNDYYYMNWVKQSHGKSLEWIGYIFPKTGGTHYNQRFKGKATLTVDKSSSTAYMELRSLTSEDSAVYYCASGPFAYWGQGTLVTVSA
VL: QIVLTQSPAIMSASPGEKVTMTCSASSSISYMHWYQQKPGTSPKRWIYDTSKLASGVPARFSGSGSGTSYSLTISSMEAEDAATYYCHQRRSYPWTFGGGTKLEIKR
notes: Murine
B13: BNJ369 (antibody, human IgG2, kappa)
heavy: QVQLVQSGAEVKKPGASVKVSCKASGYTFTDYSMDWVRQAPGQGLEWMGAIHLNTGYTNYNQKFKGRVTMTRDTSTSTVYMELSSLRSEDTAVYYCARGFYDGYSPMDYWGQGTTVTVSSASTKGPSVFPLAPCSRSTSESTAALGCLVKDYFPEPVTVSWNSGALTSGVHTFPAVLQSSGLYSLSSVVTVPSSNFGTQTYTCNVDHKPSNTKVDKTVERKCCVECPPCPAPPVAGPSVFLFPPKPKDTLMISRTPEVTCVVVDVSQEDPEVQFNWYVDGVEVHNAKTKPREEQFNSTYRVVSVLTVLHQDWLNGKEYKCKVSNKGLPSSIEKTISKAKGQPREPQVYTLPPSQEEMTKNQVSLTCLVKGFYPSDIAVEWESNGQPENNYKTTPPVLDSDGSFFLYSRLTVDKSRWQEGNVFSCSVMHEALHNHYTQKSLSLSLGK
light: DIVMTQSPDSLAVSLGERATINCRASESVDSYGNSFMHWYQQKPGQPPKLLIYRASNLESGVPDRFSGSGSGTDFTLTISSLQAEDVAVYYCQQSNEDPYTFGGGTKVEIKRTVAAPSVFIFPPSDEQLKSGTASVVCLLNNFYPREAKVQWKVDNALQSGNSQESVTEQDSKDSTYSLSSTLTLSKADYEKHKVYACEVTHQGLSSPVTKSFNRGEC
notes: Humanized full length IgG
B14: BNJ381 (antibody, human IgG2, kappa, V domains shown)
VH: QVQLVQSGAEVKKPGASVKVSCKASGYTFTDYSMDWVRQAPGQGLEWMGAIHLNTGYTNYNQKFKGRVTMTRDTSTSTVYMELSSLRSEDTAVYYCARGFYDGYSPMDYWGQGTTVTVSS
VL: DIVMTQSPDSLAVSLGERATINCRASESVDSYGNSFMHWYQQKPGQPPKLLIYWASTRESGVPDRFSGSGSGTDFTLTISSLQAEDVAVYYCQQSNEDPYTFGGGTKVEIKR
notes: Humanized full length IgG; Light chain CDR2 is humanized

target: T1, human C5a; experiment: ELISA

**Q.** Does B1 bind?
**A.** Result: binds

**Q.** Does B2 bind?
**A.** Result: binds

**Q.** Does B3 bind?
**A.** Result: binds

**Q.** Does B4 bind?
**A.** Result: binds

**Q.** Does B5 bind?
**A.** Result: binds

**Q.** Does B6 bind?
**A.** Result: binds

**Q.** Does B7 bind?
**A.** Result: binds

**Q.** Does B8 bind?
**A.** Result: binds

**Q.** Does B9 bind?
**A.** Result: binds

**Q.** Does B10 bind?
**A.** Result: binds

**Q.** Does B11 bind?
**A.** Result: binds

**Q.** Does B12 bind?
**A.** Result: binds

target: T1, human C5a; experiment: SPR (Biacore); antibody captured by anti-human Fc on CM5 chip, human C5a 0.6-5.9 nM as analyte; 1:1 Langmuir fit
Method: See, e.g., Karlsson and Larsson (2004) Methods Mol Biol 248:389-415. […] The surface was regenerated with 20 mM HCl, 0.02% P20 after each cycle to remove bound antibody and antigen. The data was evaluated using Biacore BlAevaluation software using a 1:1 Langmuir Model Fit (Rmax:Global Fit; R1:Local Fit). Kinetics information such as (kₐ: Association Rate constant), (kd:Dissociation Rate constant) and KD (Equilibrium Dissociation constant) was obtained from the fit. These experiments were for screening purposes with a minimal number of analyte concentrations (3 to 4) with 1 duplicate.

**Q.** With B13 as the binder, how does the Kd read?
**A.** The Kd was 0.0531 nM.

**Q.** And the koff?
**A.** Its koff is 0.000223 s⁻¹.

**Q.** What about the kon of the same binder?
**A.** Its kon is 4.19e+06 M⁻¹ s⁻¹.

**Q.** B14 was tested. Which Kd did it give?
**A.** Its Kd is 0.0815 nM.

**Q.** And the koff?
**A.** The koff was 0.000209 s⁻¹.

**Q.** And the kon?
**A.** Its kon is 2.57e+06 M⁻¹ s⁻¹.
